Data from patent US20230227537A1 (VIB VZW, published 2023).

Columns and labels:
[1] = target: SARS-CoV-2 RBD protein Avi-tag biotinylated (AcroBiosystems SPD-C82E9) (SARS-CoV-2, UniProt P0DTC2 330-518); assay: competition AlphaLISA; competitor human ACE2-mFc; for % inhibition: test concentration or dose not given here
[2] = target: SARS-CoV-1 spike, full length, on cells or on pseudotyped virus (SARS-CoV-1, UniProt P59594 14-1255); assay: cell-based or functional assay
[3] = target: T1, 2019-nCoV RBD (purified recombinant) (SARS-CoV-2, UniProt P0DTC2 330-518); assay: SPR, His-tagged VHH on NTA chip, RBD as analyte
[4] = target: T2, SARS-CoV RBD (SARS-CoV-1, UniProt P59594 320-502); assay: SPR, His-tagged VHH on NTA chip, RBD as analyte
[5] = target: T3, SARS-CoV NTD (N-terminal domain) (SARS-CoV-1, UniProt P59594 14-276); assay: ELISA, coated antigen
T3 sequence: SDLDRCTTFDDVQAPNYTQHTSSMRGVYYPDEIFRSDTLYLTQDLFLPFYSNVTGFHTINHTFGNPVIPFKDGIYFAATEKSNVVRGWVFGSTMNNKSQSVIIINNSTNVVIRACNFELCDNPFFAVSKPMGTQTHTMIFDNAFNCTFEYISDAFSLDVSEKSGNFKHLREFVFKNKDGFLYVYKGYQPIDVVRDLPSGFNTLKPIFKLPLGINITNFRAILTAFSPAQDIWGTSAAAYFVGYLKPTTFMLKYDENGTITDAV

[6] = target: T1, 2019-nCoV RBD (purified recombinant)
[7] = target: T2, SARS-CoV RBD

B1: SARS VHH-72 (VHH)
VHH: QVQLQESGGGLVQAGGSLRLSCAASGRTFSEYAMGWFRQAPGKEREFVATISWSGGSTYYTDSVKGRFTISRDNAKNTVYLQMNSLKPDDTAVYYCAAAGLGTVVSEWDYDYDYWGQGTQVTVSS
For B1, the “% inhibition” value [1] was 97%, the IC50 [1] was 26.7 nM and the “IC50, pseudotyped lentivirus neutralization, Huh7.5 cells, luciferase” value [2] was 0.14 µg/mL. The Kd [3] was 38.7 nM, the Kd [4] was 1.15 nM and the binding result [5] was “no binding”. The koff [6] was 3.13 s⁻¹, the kon [6] was 8.09e+07 M⁻¹ s⁻¹ and the koff [7] was 0.0033 s⁻¹. It also gave a kon [7] of 2.86e+06 M⁻¹ s⁻¹.
